Data published in US20140328853A1.
Read-outs that look alike come from different tables or passages of the source.

What was measured:
[1] = biological target: ADM (human or mouse not told for the control row of Table 3); assay: cell-based or functional assay
[2] = biological target: human recombinant adrenomedullin receptor (CRLR+RAMP3) (human)
[3] = biological target: human recombinant adrenomedullin receptor (CRLR+RAMP3) (human); remark: listed apart in the source

| Maximal inhibition of ADM bioactivity (ADM-Bioassay) (%) [1] | IC50 (read off the curve) [2] | IC50 (read off the curve) [3] | Substance |
| --- | --- | --- | --- |
| 0% | – | – | Non specific mouse IgG (antibody) |
| – | 0.2 µM | 3 µM | hADM 22-52 (on the sheet: antagonist) (peptide) |
